We go through five molecules from patent publication US20230340151A1 (Pfizer, published 2023).

A word on the Kd: it is the constant that tells how readily two partners part at equilibrium. What is called EC50 is the concentration at which the effect is half-maximal. What is called koff is a measure of how fast the partners let go of each other. What is called kon is a measure of how fast the partners come together.

Residue numbers refer to the chain shown, from its start.

For assay [1], the target named is T1, Human GUCY2C full length (SEQ ID NO: 224), recombinant protein (human, UniProt P25092 24-430, limits assumed).
T1 construct: also called huGUCY2C; biotinylated human GUCY2c
As to the kind of experiment: SPR, IgG captured by anti-human Fc.

In assay [2] the target is T2, Purified human GUCY2c ECD (recombinant, construct not stated) (human, UniProt P25092 24-430).
T2 construct: also called recombinant human GUCY2c; recombinant GUCY2c protein
As to the kind of experiment: ELISA; column 'Direct huGUCY2C binding (nM)'. On the technique in general: An ELISA detects its analyte on a solid surface through an enzyme-linked reagent.

For assay [3], the target named is T1, Human GUCY2C full length (SEQ ID NO: …). As to the kind of experiment: SPR, anti-human IgG capture, 25 C. A general note: SPR reads the build-up and loss of mass on a sensor chip optically.
Assay [4] has as its target T3, Human CD3 epsilon-delta (human).
T3 construct: Single-chain epsilon-linker-delta with His6; also called huCD3
T3 chain: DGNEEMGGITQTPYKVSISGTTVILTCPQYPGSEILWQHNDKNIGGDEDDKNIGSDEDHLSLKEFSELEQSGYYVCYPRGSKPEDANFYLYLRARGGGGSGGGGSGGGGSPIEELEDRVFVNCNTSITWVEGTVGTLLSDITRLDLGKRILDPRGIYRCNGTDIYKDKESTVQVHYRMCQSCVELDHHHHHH
As to the kind of experiment: SPR, CD3 captured by anti-His, printed 25 C (Table 33C).

Assay [5] concerns the target T4, Cynomolgus GUCY2C-ECD Cleaved (cynomolgus, UniProt P25092 24-430 (human entry)).
T4 construct: also called CyGUCY2C
T4 chain: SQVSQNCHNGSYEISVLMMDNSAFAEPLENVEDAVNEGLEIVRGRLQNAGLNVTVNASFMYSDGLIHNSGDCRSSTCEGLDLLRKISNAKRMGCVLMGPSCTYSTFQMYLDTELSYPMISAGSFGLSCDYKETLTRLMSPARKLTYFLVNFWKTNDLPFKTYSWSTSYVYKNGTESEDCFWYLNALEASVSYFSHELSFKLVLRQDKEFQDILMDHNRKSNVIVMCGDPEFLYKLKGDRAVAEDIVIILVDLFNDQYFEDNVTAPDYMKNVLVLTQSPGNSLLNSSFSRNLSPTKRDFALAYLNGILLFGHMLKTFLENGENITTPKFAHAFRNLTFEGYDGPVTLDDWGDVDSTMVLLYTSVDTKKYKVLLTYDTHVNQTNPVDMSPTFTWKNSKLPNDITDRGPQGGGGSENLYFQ
As to the kind of experiment: SPR, GUCY2c directly immobilized, 25 C.

The target of assay [6] is T3, Human CD3 epsilon-delta. The experiment in a line: SPR, anti-human IgG capture, 25 C.
The target in assay [7] is T5, Cynomolgus CD3 epsilon-delta (cynomolgus).
T5 chain: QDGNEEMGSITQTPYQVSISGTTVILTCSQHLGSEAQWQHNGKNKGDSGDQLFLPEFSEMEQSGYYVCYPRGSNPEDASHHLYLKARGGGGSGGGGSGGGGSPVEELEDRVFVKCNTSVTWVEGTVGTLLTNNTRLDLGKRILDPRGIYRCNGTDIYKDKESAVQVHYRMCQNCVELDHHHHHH
As to the kind of experiment: SPR, printed anti-His capture, 25 C (Table 33D).

For assay [8], the target named is T6, Human GUCY2C ECD-muIgG2a (human).
T6 construct: also called human GUCY2c ECD-mouse IgG2a Fc fusion protein; huGUCY2c-mIgG2a
As to the kind of experiment: sandwich ELISA: CD3 epsilon-delta coated, GUCY2c ECD-mIgG2a Fc in solution.

The target of assay [9] is T7, Murine GUCY2C-ECD cleaved (mouse, UniProt Q3UWA6 20-433).
T7 sequence: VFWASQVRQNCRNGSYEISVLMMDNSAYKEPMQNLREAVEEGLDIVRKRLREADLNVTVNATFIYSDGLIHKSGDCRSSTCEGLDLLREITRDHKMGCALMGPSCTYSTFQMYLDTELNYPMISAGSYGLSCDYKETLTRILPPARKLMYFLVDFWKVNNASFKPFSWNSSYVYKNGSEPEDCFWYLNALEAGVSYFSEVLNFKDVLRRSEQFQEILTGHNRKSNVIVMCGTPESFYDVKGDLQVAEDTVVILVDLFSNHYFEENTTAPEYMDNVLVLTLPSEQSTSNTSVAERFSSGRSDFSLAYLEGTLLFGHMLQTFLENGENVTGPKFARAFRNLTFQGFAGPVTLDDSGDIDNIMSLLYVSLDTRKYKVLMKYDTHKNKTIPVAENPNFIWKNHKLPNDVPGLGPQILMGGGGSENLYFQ
The experiment in a line: SPR, GUCY2c directly immobilized, 25 C.

Assay [10] has as its target T2, Purified human GUCY2c ECD (recombinant, …). The experiment in a line: direct ELISA, coated GUCY2c ECD.
Assay [11] concerns the target T4, Cynomolgus GUCY2C-ECD Cleaved. The experiment in a line: SPR, GUCY2c directly immobilized, 37 C.
Assay [12] deals with T1, Human GUCY2C full length (SEQ ID NO: …). The experiment in a line: SPR, GUCY2c directly immobilized, 37 C.
The target in assay [13] is T7, Murine GUCY2C-ECD cleaved. The experiment in a line: SPR, GUCY2c directly immobilized, 37 C.
For assay [14], the target named is T3, Human CD3 epsilon-delta. The experiment in a line: SPR, CD3 captured by anti-His, 25 C.
Assay [15] addresses Human GUCY2c on tumor cells (T84, HT55) (human, UniProt P25092 24-1073). The experiment in a line: cell-based or functional assay.
The target in assay [16] is T4, Cynomolgus GUCY2C-ECD Cleaved. As to the kind of experiment: SPR, anti-human IgG capture, 25 C.
Assay [17] concerns the target T3, Human CD3 epsilon-delta. As to the kind of experiment: direct ELISA, coated CD3 epsilon-delta.
Assay [18] addresses T7, Murine GUCY2C-ECD cleaved. The experiment in a line: SPR, anti-human IgG capture, 25 C.
In assay [19] the target is T1, Human GUCY2C full length (SEQ ID NO: …). The experiment in a line: SPR, GUCY2c directly immobilized, 25 C.
The target in assay [20] is T5, Cynomolgus CD3 epsilon-delta. As to the kind of experiment: SPR, CD3 captured by anti-His, printed 25 C (Table 33F).
The target is the same in assay [21]. As to the kind of experiment: SPR, CD3 captured by anti-His, 25 C.

T2 sequence (P25092 24-430 limits assumed): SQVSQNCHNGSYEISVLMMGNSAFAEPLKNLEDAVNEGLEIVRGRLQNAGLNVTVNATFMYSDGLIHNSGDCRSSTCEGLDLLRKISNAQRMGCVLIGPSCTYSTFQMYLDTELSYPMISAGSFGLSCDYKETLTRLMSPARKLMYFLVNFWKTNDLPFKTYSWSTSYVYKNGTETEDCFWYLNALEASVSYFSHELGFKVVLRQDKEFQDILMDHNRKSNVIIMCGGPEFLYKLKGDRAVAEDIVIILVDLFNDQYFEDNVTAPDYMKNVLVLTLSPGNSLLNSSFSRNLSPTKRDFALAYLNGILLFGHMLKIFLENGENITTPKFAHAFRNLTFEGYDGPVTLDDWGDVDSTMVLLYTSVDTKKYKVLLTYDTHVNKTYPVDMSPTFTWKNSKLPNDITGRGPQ
T1 sequence (P25092 24-430 F281L limits assumed): as the sequence (P25092 24-430 limits assumed) above, with F258L counted along it
Sequence of Human GUCY2c on tumor cells (T84, HT55) (P25092 24-1073 limits assumed): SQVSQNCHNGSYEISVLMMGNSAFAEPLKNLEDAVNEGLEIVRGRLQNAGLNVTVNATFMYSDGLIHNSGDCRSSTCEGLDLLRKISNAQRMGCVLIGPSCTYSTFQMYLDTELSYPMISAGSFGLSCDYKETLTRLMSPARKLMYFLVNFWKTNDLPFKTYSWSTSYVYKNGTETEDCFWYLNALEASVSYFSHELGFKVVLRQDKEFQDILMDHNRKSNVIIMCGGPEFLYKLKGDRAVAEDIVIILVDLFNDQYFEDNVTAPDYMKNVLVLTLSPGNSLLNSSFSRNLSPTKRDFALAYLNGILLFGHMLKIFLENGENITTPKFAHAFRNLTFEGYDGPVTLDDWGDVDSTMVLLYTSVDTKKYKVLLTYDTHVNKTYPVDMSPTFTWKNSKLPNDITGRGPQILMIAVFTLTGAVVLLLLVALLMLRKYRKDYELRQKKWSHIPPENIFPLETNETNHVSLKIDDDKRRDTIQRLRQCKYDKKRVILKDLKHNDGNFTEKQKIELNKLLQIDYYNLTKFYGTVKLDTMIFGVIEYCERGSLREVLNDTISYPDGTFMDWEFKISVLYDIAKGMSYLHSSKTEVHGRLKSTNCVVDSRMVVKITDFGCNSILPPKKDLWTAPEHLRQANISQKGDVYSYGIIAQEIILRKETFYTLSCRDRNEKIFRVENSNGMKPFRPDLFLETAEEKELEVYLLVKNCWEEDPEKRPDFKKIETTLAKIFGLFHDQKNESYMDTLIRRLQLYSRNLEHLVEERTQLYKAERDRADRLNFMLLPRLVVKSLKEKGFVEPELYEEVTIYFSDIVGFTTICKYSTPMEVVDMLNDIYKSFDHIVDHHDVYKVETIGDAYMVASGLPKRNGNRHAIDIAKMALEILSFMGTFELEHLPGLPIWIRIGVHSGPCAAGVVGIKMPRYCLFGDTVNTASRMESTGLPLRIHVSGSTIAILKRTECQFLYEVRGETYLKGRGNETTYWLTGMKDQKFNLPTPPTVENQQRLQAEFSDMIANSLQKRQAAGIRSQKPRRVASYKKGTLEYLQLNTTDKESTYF
T6 sequence (chain, as listed by the source limits assumed): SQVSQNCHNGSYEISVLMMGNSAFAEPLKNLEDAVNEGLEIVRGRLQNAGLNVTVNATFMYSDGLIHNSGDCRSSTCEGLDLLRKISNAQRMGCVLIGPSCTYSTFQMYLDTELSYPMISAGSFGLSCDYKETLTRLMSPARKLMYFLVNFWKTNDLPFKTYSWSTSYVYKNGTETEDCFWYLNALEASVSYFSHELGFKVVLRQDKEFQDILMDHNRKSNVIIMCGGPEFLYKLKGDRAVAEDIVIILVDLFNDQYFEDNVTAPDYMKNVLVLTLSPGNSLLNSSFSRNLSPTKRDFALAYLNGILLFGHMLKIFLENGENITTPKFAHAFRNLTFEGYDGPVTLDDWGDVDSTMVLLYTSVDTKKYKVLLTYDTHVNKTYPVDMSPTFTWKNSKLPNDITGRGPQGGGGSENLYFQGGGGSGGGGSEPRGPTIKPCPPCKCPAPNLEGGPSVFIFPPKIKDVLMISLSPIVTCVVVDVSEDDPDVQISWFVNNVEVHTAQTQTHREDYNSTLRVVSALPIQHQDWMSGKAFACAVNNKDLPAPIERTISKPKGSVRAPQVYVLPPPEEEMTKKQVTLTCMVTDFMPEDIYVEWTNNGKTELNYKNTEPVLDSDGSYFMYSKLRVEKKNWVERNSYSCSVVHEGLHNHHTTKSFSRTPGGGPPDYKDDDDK

B1: GUCY2C-0212 (antibody, human IgG1, V domains shown)
VH: EVQLVESGGGLVQPGGSLRLSCAASGYTFTSYWMHWVRQAPGKGLEWIGEIKPSNGLTNYIEKFKNRFTISRDNAKNSLYLQMNSLRAEDTAVYYCARTITTTEGYWFFDVWGQGTLVTVSS
VL: DIQLTQSPSSLSASVGDRVTITCRASESVDYYGTSLMQWYQQKPGKAPKLLIYAASNVESGVPSRFSGSGSGTDFTLTISSLQPEDFATYYCQQTRKVYTFGQGTKLEIK
Turning to B1, the Kd in assay [1] is 26 nM. Besides, in assay [2], the EC50 stood at 0.769 nM.

B2: GUCY2C-0486 (antibody, human IgG1, kappa, V domains shown)
VH: B1 VH with Y60V, I61H, R72V, N74K, L79A, A97T
VL: DIQLTQSPSSLSASVGDRVTITCRASESVDYYGSSLLQWYQQKPGKAPKLLIYAASKLASGVPSRFSGSGSGTDFTLTISSLQPEDFATYYCQQTRKAYTFGQGTKLEIKR
Consider B2, for which the Kd in assay [1] came out at 5.47 nM.

B3: GUCY2C-0210 (antibody, human IgG1, V domains shown)
VH: B1 VH with G49A
VL: B1 VL
Regarding B3, in assay [1], the Kd worked out at 85.7 nM. Also, the EC50 in [2] was 8.96 nM.

B4: GUCY2C-0241 (antibody, human IgG1, kappa, V domains shown)
VH: B1 VH with R72V, N74K, L79A, A97T
VL: B2 VL with S34T, L37M, K57N, L58V, A59E, A98V
notes: humanized IgG1; used as scFv on phage in the binary substitution library
Consider B4, for which the Kd in assay [1] amounted to 9.81 nM. Besides, the 50% effective concentration (EC50) in [2] was determined as 0.161 nM.

B5: GUCY2C-0098 (bispecific antibody)
chain 1: DIVLTQSPASLAVSLGQRATISCRASESVDYYGTSLMQWYQQKPGQPPKLLIYAASNVESGVPARFSGSGSGTDFSLNIHPVEEDDIAMYFCQQTRKVYTFGGGTKLEIKGGGSGGGGEVQLVESGGGLVQPGGSLRLSCAASGFTFSDYYMTWVRQAPGKGLEWVAFIRNRARGYTSDHNPSVKGRFTISRDNAKNSLYLQMNSLRAEDTAVYYCARDRPSYYVLDYWGQGTTVTVSSGCPPCPAPEAAGAPSVFLFPPKPKDTLMISRTPEVTCVVVDVSHEDPEVKFNWYVDGVEVHNAKTKPREEQYNSTYRVVSVLTVLHQDWLNGKEYKCKVSNKALPAPIEKTISKAKGQPREPQVCTLPPSREEMTKNQVSLWCLVKGFYPSDIAVEWESNGQPENNYKTTPPVLDSDGSFFLYSKLTVDKSRWQQGNVFSCSVMHEALHNHYTQKSLSLSPG
chain 2: DIVMTQSPDSLAVSLGERATINCKSSQSLFNVRSRKNYLAWYQQKPGQPPKLLISWASTRESGVPDRFSGSGSGTDFTLTISSLQAEDVAVYYCKQSYDLFTFGSGTKLEIKGGGSGGGGQVQLQQPGAELVKPGASVKLSCKASGYTFTSYWMHWVKQRPGQGLEWIGEIKPSNGLTNYIEKFKNKATLTVDKSATTAYMQLSSLTAEDSAVYYCTRTITTTEGYWFFDVWGAGTTVTVSSGCPPCPAPEAAGAPSVFLFPPKPKDTLMISRTPEVTCVVVDVSHEDPEVKFNWYVDGVEVHNAKTKPREEQYNSTYRVVSVLTVLHQDWLNGKEYKCKVSNKALPAPIEKTISKAKGQPREPQVYTLPPCREEMTKNQVSLSCAVKGFYPSDIAVEWESNGQPENNYKTTPPVLDSDGSFFLVSKLTVDKSRWQQGNVFSCSVMHEALHNHYTQKSLSLSPG
notes: chimeric CD3-GUCY2c diabody-Fc, CD3-0004
For B5, the Kd in [3] was found to be 4.96 nM; in [4] it was 19.9 nM; in assay [5], 2.8 nM; in assay [6] it was 3.26 nM; in [7], 3.56 nM; in [9] it was 20 nM. Moreover, the Kd in assay [11] came to 8.52 nM; in assay [12], 15 nM; in [13], 103 nM; in [14], 4.75 nM; in [16], 3.93 nM; in assay [18], 107 nM. The Kd is 7.19 nM in assay [19], 19.3 nM in [20] and 4.94 nM in assay [21]. Besides, the koff in assay [3] turned out to be 0.000675 s⁻¹; in [4], 0.0505 s⁻¹; in assay [5] it was 0.000577 s⁻¹; in [6], 0.000967 s⁻¹; in [7], 0.00101 s⁻¹; in assay [9], 0.00268 s⁻¹. For the same molecule, the koff stood at 0.00264 s⁻¹ in assay [11]; 0.00377 s⁻¹ in [12]; 0.0201 s⁻¹ in [13]; 0.00524 s⁻¹ in [14]; 0.000524 s⁻¹ in assay [16]; 0.00402 s⁻¹ in [18]. Further, the koff is 0.00104 s⁻¹ in assay [19], 0.0442 s⁻¹ in [20] and 0.00478 s⁻¹ in assay [21]. In addition, the kon in assay [3] came out at 136000 M⁻¹ s⁻¹; in assay [4], 2.51e+06 M⁻¹ s⁻¹; in assay [5], 206000 M⁻¹ s⁻¹; in assay [6] it was 297000 M⁻¹ s⁻¹; in assay [7] it was 284000 M⁻¹ s⁻¹; in assay [9], 134000 M⁻¹ s⁻¹. Moreover, the kon was found to be 310000 M⁻¹ s⁻¹ in [11]; 251000 M⁻¹ s⁻¹ in [12]; 196000 M⁻¹ s⁻¹ in assay [13]; 1.1e+06 M⁻¹ s⁻¹ in assay [14]; 134000 M⁻¹ s⁻¹ in assay [16]; 37500 M⁻¹ s⁻¹ in [18]. For the same molecule, the kon worked out at 145000 M⁻¹ s⁻¹ in assay [19], 2.28e+06 M⁻¹ s⁻¹ in [20] and 969000 M⁻¹ s⁻¹ in assay [21]. For the same molecule, the EC50 in [8] was determined as 186 nM; in [10], 60.2 nM; in [17], 7.24 nM. In assay [15], the “T84 tumor cell EC50 (T cell cytotoxicity, E:T 10:1)” value stood at 0.41 nM.
